Reference: patent publication US8426166B2, “Long-acting polypeptides and methods of producing same” (Prolor Biotech Inc., dated 2013)

T1: human IFN receptor (human, UniProt P17181)
T1 sequence 1: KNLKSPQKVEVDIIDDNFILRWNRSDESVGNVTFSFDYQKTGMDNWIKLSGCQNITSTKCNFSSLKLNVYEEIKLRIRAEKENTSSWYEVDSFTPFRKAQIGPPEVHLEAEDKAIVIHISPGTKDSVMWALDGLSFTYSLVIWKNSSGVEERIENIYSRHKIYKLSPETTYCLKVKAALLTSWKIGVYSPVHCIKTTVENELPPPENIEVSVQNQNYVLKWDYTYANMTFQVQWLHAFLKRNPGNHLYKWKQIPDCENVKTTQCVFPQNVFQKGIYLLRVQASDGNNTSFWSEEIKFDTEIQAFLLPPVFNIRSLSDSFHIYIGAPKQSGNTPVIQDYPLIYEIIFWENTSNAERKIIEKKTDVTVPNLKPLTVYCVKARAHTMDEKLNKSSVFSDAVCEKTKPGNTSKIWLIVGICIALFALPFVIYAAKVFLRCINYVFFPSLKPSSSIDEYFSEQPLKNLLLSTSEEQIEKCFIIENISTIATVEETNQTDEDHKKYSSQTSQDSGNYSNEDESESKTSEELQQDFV
T1 sequence 2: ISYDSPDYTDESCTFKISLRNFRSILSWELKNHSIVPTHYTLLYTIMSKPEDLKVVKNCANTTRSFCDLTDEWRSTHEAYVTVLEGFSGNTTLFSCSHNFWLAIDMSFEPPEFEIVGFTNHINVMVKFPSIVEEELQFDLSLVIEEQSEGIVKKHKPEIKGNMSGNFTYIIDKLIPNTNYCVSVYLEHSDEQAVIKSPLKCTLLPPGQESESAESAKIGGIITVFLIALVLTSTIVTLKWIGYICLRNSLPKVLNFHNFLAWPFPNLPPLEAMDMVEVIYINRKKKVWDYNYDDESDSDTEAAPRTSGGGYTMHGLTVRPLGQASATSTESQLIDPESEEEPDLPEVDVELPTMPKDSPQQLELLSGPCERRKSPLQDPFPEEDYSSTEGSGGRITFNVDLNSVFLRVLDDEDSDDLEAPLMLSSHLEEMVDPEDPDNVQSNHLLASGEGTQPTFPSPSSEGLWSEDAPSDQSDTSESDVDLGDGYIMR

B1: Intl. Standard (IFN-β reference standard calibrated in International Units, National Institute of Allergy and Infectious Diseases (NIH)) (ligand)
chain: MSYNLLGFLQRSSNFQCQKLLWQLNGRLEYCLKDRMNFDIPEEIKQLQQFQKEDAALTIYEMLQNIFAIFRQDSSSTGWNETIVENLLANVYHQINHLKTVLEEKLEKEDFTRGKLMSSLHLKRYYGRILHYLKAKEYSHCAWTIVRVEILRNFYFINRLTGYLRN
B2: Human Interferon-β 1a-MOD-9010 (ligand)
chain: B1 chain
B3: MOD-9011 (IFNβ-ctp) (ligand)
chain: MSYNLLGFLQRSSNFQCQKLLWQLNGRLEYCLKDRMNFDIPEEIKQLQQFQKEDAALTIYEMLQNIFAIFRQDSSSTGWNETIVENLLANVYHQINHLKTVLEEKLEKEDFTRGKLMSSLHLKRYYGRILHYLKAKEYSHCAWTIVRVEILRNFYFINRLTGYLRNSSSSKAPPPSLPSPSRLPGPSDTPILPQ
B4: MOD-9012 (IFNβ-ctpx2) (ligand)
chain: MSYNLLGFLQRSSNFQCQKLLWQLNGRLEYCLKDRMNFDIPEEIKQLQQFQKEDAALTIYEMLQNIFAIFRQDSSSTGWNETIVENLLANVYHQINHLKTVLEEKLEKEDFTRGKLMSSLHLKRYYGRILHYLKAKEYSHCAWTIVRVEILRNFYFINRLTGYLRNSSSSKAPPPSLPSPSRLPGPSDTPILPQSSSSKAPPPSLPSPSRLPGPSDTPILPQ
B5: MOD-9016 (ctp-IFNβ-ctp) (ligand)
chain: SSSSKAPPPSLPSPSRLPGPSDTPILPQMSYNLLGFLQRSSNFQCQKLLWQLNGRLEYCLKDRMNFDIPEEIKQLQQFQKEDAALTIYEMLQNIFAIFRQDSSSTGWNETIVENLLANVYHQINHLKTVLEEKLEKEDFTRGKLMSSLHLKRYYGRILHYLKAKEYSHCAWTIVRVEILRNFYFINRLTGYLRNSSSSKAPPPSLPSPSRLPGPSDTPILPQ

The binders below were run against T1, human IFN receptor (assay: cell-based or functional assay).

Binder | IC50 pg/ml (anti-proliferation, Daudi cells) | Specific Activity IU/mg x 10^8, Anti-viral (viral cytopathic effect bioassay, A549 cells challenged with virus) | Specific Activity IU/mg x 10^8, Anti-proliferation (Daudi cells, 72 hours, viable cells)
B1 | 318 pg/mL |  | 
B2 | 251 pg/mL | 3.9e+08 IU/mg | 
B3 | 264 pg/mL | 4e+08 IU/mg | 2.41e+08 IU/mg
B4 |  | 4e+08 IU/mg | 
B5 | 323 pg/mL | 3.7e+08 IU/mg | 1.97e+08 IU/mg
